Assay results: publication PMC4619679

Biological target: Dnmt1 (N-His) (UniProt P13864)
Assay: MST
Conditions: EMSA: 20 mM Tris pH 7.6, 30 mM KCl, 5 mM EDTA, 1 mM DTT, 5 uM SAM, 20% glycerol, 26 C, MST: 10 mM Tris/Cl, 150 mM KCl, 0.75 mM MgCl2, 0.25 mM EGTA

UniProt P13864, sequence (P13864 whole entry): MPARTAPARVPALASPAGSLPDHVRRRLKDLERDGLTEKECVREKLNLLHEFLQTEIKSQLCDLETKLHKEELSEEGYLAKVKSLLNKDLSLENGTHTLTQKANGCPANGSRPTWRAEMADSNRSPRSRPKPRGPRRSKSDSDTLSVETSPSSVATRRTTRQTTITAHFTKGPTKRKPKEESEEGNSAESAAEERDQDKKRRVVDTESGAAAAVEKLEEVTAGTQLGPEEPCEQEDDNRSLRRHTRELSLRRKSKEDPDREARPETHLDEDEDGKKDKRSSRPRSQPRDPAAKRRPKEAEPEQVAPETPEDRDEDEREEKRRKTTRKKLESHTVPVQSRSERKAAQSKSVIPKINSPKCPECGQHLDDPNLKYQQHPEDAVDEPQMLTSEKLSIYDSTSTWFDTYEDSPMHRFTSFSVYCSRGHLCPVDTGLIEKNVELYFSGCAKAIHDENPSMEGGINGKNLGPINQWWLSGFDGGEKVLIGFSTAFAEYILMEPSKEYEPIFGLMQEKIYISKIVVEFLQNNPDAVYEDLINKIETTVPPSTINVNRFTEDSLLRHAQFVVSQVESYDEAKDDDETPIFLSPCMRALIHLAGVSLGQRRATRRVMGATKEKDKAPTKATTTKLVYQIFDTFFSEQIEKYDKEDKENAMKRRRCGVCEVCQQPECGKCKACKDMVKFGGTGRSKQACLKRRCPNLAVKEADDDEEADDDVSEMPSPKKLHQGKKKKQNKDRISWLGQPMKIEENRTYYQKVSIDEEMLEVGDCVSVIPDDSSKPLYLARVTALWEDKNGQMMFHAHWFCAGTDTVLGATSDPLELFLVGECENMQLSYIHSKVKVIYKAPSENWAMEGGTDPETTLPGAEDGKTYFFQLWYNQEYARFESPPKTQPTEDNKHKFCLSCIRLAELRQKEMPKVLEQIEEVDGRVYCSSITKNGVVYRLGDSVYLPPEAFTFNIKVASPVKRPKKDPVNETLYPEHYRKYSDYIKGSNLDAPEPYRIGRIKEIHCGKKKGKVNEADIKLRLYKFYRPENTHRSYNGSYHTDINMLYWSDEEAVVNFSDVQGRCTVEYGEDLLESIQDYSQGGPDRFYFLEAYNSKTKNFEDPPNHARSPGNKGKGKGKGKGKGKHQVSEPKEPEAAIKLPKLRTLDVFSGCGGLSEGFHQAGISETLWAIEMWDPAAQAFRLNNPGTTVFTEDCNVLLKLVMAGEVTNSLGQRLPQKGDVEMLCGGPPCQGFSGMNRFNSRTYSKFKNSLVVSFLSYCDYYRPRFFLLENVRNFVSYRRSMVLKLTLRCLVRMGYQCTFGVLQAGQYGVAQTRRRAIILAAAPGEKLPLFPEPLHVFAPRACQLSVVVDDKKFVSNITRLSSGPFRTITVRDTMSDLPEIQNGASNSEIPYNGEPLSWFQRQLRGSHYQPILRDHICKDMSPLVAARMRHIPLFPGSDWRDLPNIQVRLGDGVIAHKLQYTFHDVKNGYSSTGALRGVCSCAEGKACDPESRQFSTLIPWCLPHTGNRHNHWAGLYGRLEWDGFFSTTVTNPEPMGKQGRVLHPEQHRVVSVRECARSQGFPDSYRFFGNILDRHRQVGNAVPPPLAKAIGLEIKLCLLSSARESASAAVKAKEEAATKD

Sequence	binding signal (fold higher affinity with SAM) (160 uM SAM, 5-methyl-C at Z positions of the lower strand (C5, C12, C18, C20, C29, C33, C40, C42, C49; strand printed only up to TTAGAZG, so the CG in the last 8 nt is unknown))	K half
TGCGGAATCGTCTAACGCGTGGAATCGTCCGATTGAGGTCGCGATCTCGAATCACGGTGC (double strand) [AIR60 hemi-methylated 60 bp DNA]	2	
TGCGGAATCGTCTAACGCGTGGAATCGTCCGATTGAGGTCGCGATCTCGAATCACGGTGC (double strand) [AIR60 non-methylated 60 bp DNA]		1500 nM
